The values that follow come from US10736988B2, “Bone substitute nanocomposites and methods of synthesis using multiphosphorylated peptides” (UNIVERSITY OF PITTSBURGH—OF THE COMMONWEALTH SYSTEM OF …, priority 2012, dated 2020).

Like-named read-outs stand apart in the source and are kept apart here.

One series has as its system collagen fibrils. Particulars: cited from earlier work.
Series [1] concerns rabbit ulna critical size defect. As to the kind of experiment: In vivo bone regeneration, rabbit ulna critical size defect. The source says:
A collagen scaffold containing […] indicated by SEQ NO. 2 peptide was implanted into a critical size defect in a rabbit ulna model. […] 2 peptide eight weeks after the surgery. […] FIG. 10A is a low-magnification image and FIG. 10B is a close up of the area in FIG. 10A identified by a rectangle, of H&E stained nondecalcified sections of the regenerating ulnar bone eight weeks after the surgery.

B1: phosphophoryn (protein, UniProt Q9NZW4 463-1301, looked up)
Dentin phosphoprotein: DDPNSSDESNGNDDANSESDNNSSSRGDASYNSDESKDNGNGSDSKGAEDDDSDSTSDTNNSDSNGNGNNGNDDNDKSDSGKGKSDSSDSDSSDSSNSSDSSDSSDSDSSDSNSSSDSDSSDSDSSDSSDSDSSDSSNSSDSSDSSDSSDSSDSSDSSDSKSDSSKSESDSSDSDSKSDSSDSNSSDSSDNSDSSDSSNSSNSSDSSDSSDSSDSSSSSDSSNSSDSSDSSDSSNSSESSDSSDSSDSDSSDSSDSSNSNSSDSDSSNSSDSSDSSNSSDSSDSSDSSNSSDSSDSSDSSNSSDSSDSSDSSDSSDSSNSSDSNDSSNSSDSSDSSNSSDSSNSSDSSDSSDSSDSDSSNSSDSSNSSDSSDSSNSSDSSDSSDSSDGSDSDSSNRSDSSNSSDSSDSSDSSNSSDSSDSSDSNESSNSSDSSDSSNSSDSDSSDSSNSSDSSDSSNSSDSSESSNSSDNSNSSDSSNSSDSSDSSDSSNSSDSSNSSDSSNSSDSSDSNSSDSSDSSNSSDSSDSSDSSDSSDSSDSSNSSDSSDSSDSSDSSNSSDSSNSSDSSNSSDSSDSSDSSDSSDSSDSSDSSDSSNSSDSSDSSDSSDSSDSSDSSDSSDSSESSDSSDSSNSSDSSDSSDSSDSSDSSDSSDSSDSSDSSNSSDSSDSSDSSDSSDSSNSSDSSDSSESSDSSDSSDSSDSSDSSDSSDSSDSSDSSNSSDSSDSSDSSDSSDSSDSSDSSDSSDSSDSSDSSDSSDSSDSSDSSDSSDSNESSDSSDSSDSSDSSNSSDSSDSSDSSDSTSDSNDESDSQSKSGNGNNNGSDSDSDSEGSDSNHSTSDD
modifications: Dentin phosphoprotein
notes: major non-collagenous protein in dentin, Ser-Ser-Asp repeat motifs
Regarding B1, the collagen fibril mineralization result in the series on collagen fibrils (nonphosphorylated protein) is recorded as “no organized mineralization of collagen fibrils was observed”; with collagen fibrils (phosphorylated protein), “highly organized mineralized collagen fibrils”.

B2: dentin matrix protein 1 (protein, UniProt Q13316 17-513, looked up)
Dentin matrix acidic …: LPVTRYQNNESEDSEEWKGHLAQAPTPPLESSESSEGSKVSSEEQANEDPSDSTQSEEGLGSDDHQYIYRLAGGFSRSTGKGGDDKDDDEDDSGDDTFGDDDSGPGPKDRQEGGNSRLGSDEDSDDTIQASEESAPQGQDSAQDTTSESRELDNEDRVDSKPEGGDSTQESESEEHWVGGGSDGESSHGDGSELDDEGMQSDDPESIRSERGNSRMNSAGMKSKESGENSEQANTQDSGGSQLLEHPSRKIFRKSRISEEDDRSELDDNNTMEEVKSDSTENSNSRDTGLSQPRRDSKGDSQEDSKENLSQEESQNVDGPSSESSQEANLSSQENSSESQEEVVSESRGDNPDPTTSYVEDQEDSDSSEEDSSHTLSHSKSESREEQADSESSESLNFSEESPESPEDENSSSQEGLQSHSSSAESQSEESHSEEDDSDSQDSSRSKEDSNSTESKSSSEEDGQLKNIEIESRKLTVDAYHNKPIGDQDDNDCQDGY
Turning to B2, the collagen fibril mineralization result in the series with collagen fibrils (nonphosphorylated protein) is listed as “no organized mineralization of collagen fibrils was observed”; in the series with collagen fibrils (phosphorylated protein), “highly organized mineralized collagen fibrils”.

B3: … (peptide)
chain: RRRDEDESSDSSDSSDSSDSSDSSDSSDSSDSSDSSDSSDSSDSSDSSDSSDSSDSSDSSDSSDSSDDEG
modifications: derived from consensus mammalian sequence of DSPP; (8)..(68) [Asp Ser Ser] repeats (n varies from 2 to 20); (1)..(3) Insertion of 3 Arg at the N terminus of the peptide; (4)..(7) Casein kinase 1 recognition motif; (69)..(71) Casein kinase 2 recognition motif
Take B3: the “bone re-growth (MicroCT)” value in series [1] (collagen scaffold containing peptide, 8 weeks, versus no implant) is on record as “significant bone re-growth”. Also, in series [1] (eight weeks after the surgery), the “bridging of the defect (H&E nondecalcified sections)” value was “almost complete bridging of the critical size defect by bone”.
